Experiment: yeast display, Sf9 membrane polyspecificity reagent, FACS + sequencing; frameworks hold sequencing errors
Summary of the method: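 Genes from sorted yeast were amplified by colony PCR, read by MiSeq 2 × 250 sequencing and filtered on CDR length. These cells carried a synthetic nanobody library in Saccharomyces cerevisiae BJ5465 and were sorted by FACS into low and high (top ~1%) gates on anti-HA and streptavidin fluorescence. Polyreactivity is labelled according to the gate of origin.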

QVQLVESGGGLVPAGGSLRLSCAASGRIFVVYSMGWYRQAPGKERELVASISGGSTNYADSVKGRFTISRDNAKNTVYLQMNSLKPEDTAVYFCGMEYWGQGTQVTVSS
polyreactivity (PSR sort gate): low polyreactivity

QVQLVESGGGIVQAGGSLRLSCAASGFIFPDYGMGWYRQAPGKERELVAAISRNGVSTYYADSVKGRFTISRDNAKNTVYLQMNSLKPEDTAVYYCAARYYRIRRVSKSGYYWGQGTQVTVSS
polyreactivity (PSR sort gate): low polyreactivity

QVQLVESGGGLVQAGGSLRLSCAASGYIFYGYVMGWYRQAPGKERELVAGITYSGGGGTHYADSVKGRFTISRDNAKNTVYLQMNSLKPEDTAVYYCATADPQLNRTYYSYGMDYWGQGTQVTVSS
polyreactivity (PSR sort gate): low polyreactivity

QVQLVESGGGLVQAGGSLRLSCAASGFTFVSYAMGWYRQAPGKERELVASITWTGGSTYYADSVKGRFTISRDNAKNTVYLQMNSLKPEDTAVYYGAAQQFYSGILGRYYWGQGTQVTVSS
polyreactivity (PSR sort gate): low polyreactivity

QVQLVESGGGLVQAGGSLRLSCAAYGSTFTDYDMGWYRQAPGKERELVAAITSGGSTNYADSVKGRFTISRDNAKNTVYLQMNSLKPEDTAVYYCAAADADRKYDYWGQGTQVTVSS
polyreactivity (PSR sort gate): low polyreactivity

QVQLVESGGGLVQAGGSLRLSCAASGRTFYRSVMGWYRQAPGKERELVAAITPGGSTYADSVKGRFTISRDNAKKTVSLQMNSLKPEDTAVNYCNKRKASSSGYNYWGQVTQVTVSS
polyreactivity (PSR sort gate): low polyreactivity

QVQLVDSGGGLVQAGASLRLSCAASGRTFYPYAMGWYRQAPAKERELDAAISSKGGITYYADSVKGRFTISRDNAKNTVYLQMNSLNPEDTAVYYCAALYTGESGYWGQGTQVSVSS
polyreactivity (PSR sort gate): high polyreactivity

QVQLVESGGGLVQAGGSLRLSCAASGRTFPRNAMGWSRQAPGKERELVAAISSTGDSTYYADSVKGRFTISRDNAKNTVYLQMNSLKPEDTAVYYCHYPYDYWGKGTQVTVSS
polyreactivity (PSR sort gate): low polyreactivity

QFQIVESGGGLVQAGGSLRLSCAASGSTFRSYAMGWYRQAPGKERELFARISYRTGSTYYADSVKRRFTISRDNAKNTVYLQMNSLKPEDTVVYYCAAGYIIQRSYFLYDSWGHGTQVTVSS
polyreactivity (PSR sort gate): high polyreactivity

QVQLVESGGGLVQAGGSLRLSCAASGSIFTRNAMGWYRQAPGKERELVAAITSGGRTYYADSVKGRFTISRDNAKNTVYLQMNSLKPEDTAVYYCNAYAWGWYDYWGQGTQVTVSS
polyreactivity (PSR sort gate): high polyreactivity

QVQLVESGGGLVQAGGSHRLSCAASGGTFYYYTMGWYRQAPGKERELVAAISWSGGSTYYADSVKGRFTISRNNEKNTVYLQMKSLKPEDSAVYYCNAVYAGRFGSHYWGQCTQVTVSS
polyreactivity (PSR sort gate): high polyreactivity

QVQLVESGGGLVQAGGSLRLSCAASGSTINYNAMGWYRQAPGKERELVAAIDSGVSTNYADSVKGRFTITRDNAKNTVYLQMNSLKPEDTAVYYCNADPDYFDYWGQGTQVTVSS
polyreactivity (PSR sort gate): low polyreactivity

QVQLVESGGGLVQAGGSLRLTCAASGSIFPYYAMGWYRQAPGKEREFVAVISRRGGSTYYADSVKGRFTISRDNAKNTVYLQMNSLKPEDTAVYYCNARGYNLLDDWGQGTQVTVSS
polyreactivity (PSR sort gate): high polyreactivity

QVQLVESGGGLVQAGGSLRLSCAASGIIFAANAMGWYRQAPGKELELVAAISKNGGITYYADSVKGRFTISRDNAKNTVYLQMNSLIPEDPAVYYCAARWRQTRRYYYWGQGSQVTVSS
polyreactivity (PSR sort gate): high polyreactivity

QVQLVESGGGLVQAGGSLRLSCAASGRIFSSYAMGWSRQAPGKERELVAAISSSGGNTYYADSVKGRFTISRDNAKNTVYLQMNSLKPEDTAVYYCNTRWVHRDWYDYWGQGTQVTVSS
polyreactivity (PSR sort gate): high polyreactivity

QLQLVESGGGLVQAGGSLRLSCAASGGTFYTNAMGRYRQAPGKEREFVAAISWIGGSTRYADSVKGRFTISRDNAKNTVYLQMNSLKPEDTEVYFCAAEDVFWVGEYYYEMDYWGQGTQVTVSS
polyreactivity (PSR sort gate): high polyreactivity

QVQLVESGGGLVQAGGSLRLSCAASGRTFYGYAMGWYRQAPGKERELVAAITRSGGSTYYADSVKGRFTISRDNAKNTVYLQMNSLKPEDTAVYYCAAGGQARHDNWGQGTQVTVSS
polyreactivity (PSR sort gate): low polyreactivity

QVQLVESGGGLVQAGGSLRLSCAASGFIFVRNAMVWYRQAPGIERELVAAIRWSGGSTYYADSVKGRFTISRDNAKNTVYLQMNSLKPEDTAVYYCAKEPPPVKGDYWGQGTQVTVSS
polyreactivity (PSR sort gate): low polyreactivity

QVQLVESGGGVVQAGGSLRLSCAASGRIFIYYTMGWYRQAPGKEREFVAAITYSGGSTRYADSVKGRFTISRDNAKNTVYLQMNSLKPEDTAFYYCAAKFSVRRGFDYWGQGTQVTVSS
polyreactivity (PSR sort gate): low polyreactivity

QVQLVDSGGGLVQAGGRLRISSAASGRISQGNAMGWYRQAPGKERELVAGISRSGGSTYYADSVKGRFTISRDNAKKTVYLQMNSLKPEDTAVYYCAARYYWRGYYWGQGTQVTVSS
polyreactivity (PSR sort gate): high polyreactivity

QVQLVESGGGLVQAGGSLRLSCAASGRTFRPYAMGWYRQAPGKERQFVAAISSSGGSTYYADSVKGRFSISRDNAKNTVYLLMNSLKPEDTAVYYCATGRKNAAQRWGYYYWGQGTQVTVSS
polyreactivity (PSR sort gate): high polyreactivity

QVQLVESGGGLVQAGGSLRLSCAASGFTFRTYAMGWYRQAPGKEREYVAAINGRSGSTYADSVKGRFTISRDNAKNTVYLQMISLKPEDTAVYYCAARVRRGSTQAQFYYWGQGTQVTVSS
polyreactivity (PSR sort gate): high polyreactivity

QVQLVESGGGLVQAGGSLSLSCAASGRIFNQNAMGWYRQAPGKERELVAAISKSGTRTYYADSVKGRFTISRDNAKNTVYLQMNSLNREDTAVYYCAADYYRRIGGYRYDYDYWGQGTEVTVSS
polyreactivity (PSR sort gate): high polyreactivity

QVQLVESGGGLVQAGGSLRLICGASGSTFQVNAMGWYRQGPGKERELVASISGGSSTNYADSVKGRFTISRDNAKNTVYLQMNSLKPEDTAVYYCAAYYLSGLRVAYDYWGQGTQVTVSS
polyreactivity (PSR sort gate): low polyreactivity

QVQLVESGGGLVQAGGSLRLSCAASGITFRGYAMGWYRQAPGKERELVATISYRGGNTYYADSVKGRFTISRDNAKNTVYLQMNSLKPEDTAVYYCARKYFRTSNLYGYWGQGTQVTVSS
polyreactivity (PSR sort gate): high polyreactivity

QVQLVESGGGLVQAGGSLRLSCAASGIIFENYAMGWYRQAPGKERELVAAISAGGAITYYADSVKGRFTISRDNAKNTVYLQMNSLKPEDTAVYYCNAKSYRHLLYIPYKYNYWGQGTQVTVSS
polyreactivity (PSR sort gate): high polyreactivity

QVQLVESGGRLVQAGGSLRLSCAASGRTFYGYAMGWYRQAPGKEREFVAAISVGGGSTYYADSVKGRFTISRDKAKNTVYLQMNSLKPEDTAVYYCAAYTRYWSYGYWGQGTQVTVSS
polyreactivity (PSR sort gate): high polyreactivity

QVQLVESGGGLVQAGGSLRLSCAASGFTFVRYTMGWYRQAPGKERELVAAITASGDRTYYADSVKGRFTISRDNAKNTVYLQMNSLKPEDTAVYYCAARVWRTVTRSKYGYWGQGTQVTVSS
polyreactivity (PSR sort gate): high polyreactivity

QVQLVESGGGLVQAGGSLRLSCAASGRIFFPYAMGWYRQAPGKEREFVAAITTGCGSTYYADSVKGRFTISRDNAKNTVYLQMNSLKPEDTAVYYCAKRTYSRKFRGAYNYWGQGTQVTVSS
polyreactivity (PSR sort gate): high polyreactivity

QVQLVESGGGLVQAGGSLRLSCAASGRTFYSYAMVWYRQAPGKERELVAAISAGGSTYYADSVKGRFTSSRDNAMTTLYLQMNSLKPEDTAVYYCADTYSYYYVRYHYWGQGTQVTVSS
polyreactivity (PSR sort gate): high polyreactivity

QVQLVESGGGLVQAGASLRLSCAASGRIFSRNTMGWSRQAPGKECEFVAAISQSGGRTYYADSVKGRFTISRDNAKNTVYLQMNSLKPEDTAVYYCNAQFARSSGFNYWGQGTQVTVSS
polyreactivity (PSR sort gate): high polyreactivity

QVQLVESGGGLVHAGGSLRLICAGSGFTFRGYAMGWYRQAPGKEMELVADITSGGSTYYADSVKGRFTISRDNAKNTVYLQMNSLKPEDTAVYYCAPRQRSRSRYDYWGQGTQVTVSS
polyreactivity (PSR sort gate): high polyreactivity

QVQLVESGGGLVQAGGSLRLSCAASGRIFKYYAMGWYRQAPGKERELVAAISRSGGSTYYADSVKGRFTISRDNAKKTVYLQMNSLKPEDTAVYYCAAGYKQATYDRIRTAYGYWGQGTQVTVSS
polyreactivity (PSR sort gate): high polyreactivity

QVQLVESGGCLVQAGGSLRLSCAASGFTFHNNVMGWYRQAPGKDRELVATISKSGGSTYYADSEKGRFTISRDNAKNTVYLQMNSLKPEDTAVYYCDRRYRYYGRYGYWGQGTQVTVSS
polyreactivity (PSR sort gate): high polyreactivity

QVQLVESGGGLVQAGGSLRLSCAASGVIFKAYAMGWYRPAPGKERELVAAITSSGGRTYYADSVKGRFTISRDNAKNTVYLQMNSLKPEDSAVYYCNARGVLRTSLYRYDYWGQGTQLTVSS
polyreactivity (PSR sort gate): high polyreactivity

QVQLVESGGGLVQAGGSLRLSCAASGGIFTLNGMGWYRQAPGKERELVAVITSSGGSTYYADSVKGRFTISRDNAKNTVYLQMNSLKPEDTAVYYCAAQLVRYVGYYRFDYWGQGTQVTVSS
polyreactivity (PSR sort gate): low polyreactivity

QVQLVESGGGLVQAGGSLRISCAASGRTFGRYTMGWYRQAPGKVRELVASISNTARTNYADSVKGRFTISRDNAKNTVYLQMNSLKPEDTAVYYCASGFVRYRGTRDYWGQGTQVTVSS
polyreactivity (PSR sort gate): low polyreactivity

QVQLVESGGGLVQAGGSLRLSCAASGRTFQRYAMGWYRQAPGKERELVAAITSGSRTNYADSVKGRFTSSRDNAKNTVYLQMNSLKPEDTAVYYCAADYTWRNNYCGQGTQVTVSS
polyreactivity (PSR sort gate): high polyreactivity

QVQLVESGGGLVQAGGSLRLSCAASGRTFSFYAMGWYRQAPGKERELVAGIDWDDGSTSYADSVKGRFTISRDNAKNTVYLQMNSLKPEDTEVYYCAADIGYDVYNDYDYWGQGTQVTVSS
polyreactivity (PSR sort gate): low polyreactivity

QVQLEESGGVLVQAGGSLRLSCAASGLTLYRNAMGWYRQAPGKERELVATINFSGGSTYYADSVKGRFTISRDNAKNTVYLQMNSLKPEDTAVYYCNARGYWHYSPTKFDYWGQGTQVTVSS
polyreactivity (PSR sort gate): low polyreactivity

QVQLVQSGGGLVQAGGSLRLSCAASGSTFTPNDMGWYRQAPGKERELVAAIDWSGGSTYYADSVKGRFTISRDNAKNTVYLQMNSLKPEDTAVYYYNADSSKFYSHGEYEYWGQGTQVTVSS
polyreactivity (PSR sort gate): low polyreactivity

QVQLVESGGGLVQAGGSLRLSCAASGSIFTYNAMGWYRQAPGKERELVAVISWSGGSTYYADSVKGRFTISRDNAKNTVYLQMNSLKPEDTAVYYCNAYYYRPYGNKYGYWGQGTQVTVSS
polyreactivity (PSR sort gate): high polyreactivity

QVHLVESGGGLVQAGGTLRLSCAATGRTIYDNAMGWYRQAPGKESELVAVISRSGSTYYADSVKGRFTISRDNAKNSVYLQMNSLKPEDNAVYYCARRGVWGVTYSRLYHWGQGTQVTVSS
polyreactivity (PSR sort gate): high polyreactivity

Source: the nanobody polyreactivity screen of Harvey et al. (2022)
